Test results from US11512128B2, “VEGF/DLL4 binding agents and uses thereof” (MEREO BIOPHARMA 5, INC., priority 2011, dated 2022).
Values belong to the molecule of their own block, whether it stands above or below them.

Legend:
mouse DLL4-Fc = assay: Biacore binding affinity (KD) to mouse DLL4; conditions: Biacore 2000, mouse DLL4-Fc on CM5 chip; read-out: KD mDLL4
Procedure: (§1) The KDs of parental antibodies anti-VEGF 219R45 (IgG format), anti-DLL4 21R79 (IgG format), anti-DLL4 21M18 (IgG format) and bispecific antibodies 219R45-MB-21M18 and 219R45-MB-21R79 were determined using a Biacore 2000 system from Biacore LifeSciences (GE Healthcare). Recombinant human DLL4-Fc or mouse DLL4-Fc proteins were immobilized on CM5 carboxyl chips using standard amine-based chemistry (NHS/EDC) and blocked with ethanolamine. Recombinant human VEGF165 or mouse VEGF165 were biotinylated and immobilized on streptavidin chips. The antibodies were serially diluted 2-fold from 100 nM to 0.78 nM in HBS-P (0.01M HEPES pH7.4, 0.15M NaCl, 0.005% v/v Polysorbate 20). For each antibody, all 8 dilutions were sequentially injected over a specific chip. Kinetic data were collected over time and were fit using the simultaneous global fit equation to yield affinity constants (KD values) for each bispecific antibody.

[1] = tested on: VEGF-induced proliferation of HUVEC cells; assay: HUVEC proliferation assay; type: cell-based, human; conditions: hVEGF 5 ng/ml, Alamar Blue on day 7
Procedure: FIG. 3. Inhibition of VEGF-induced HUVEC proliferation by anti-VEGF/anti-DLL4 bispecific antibodies. Fluorescence intensity is read using an excitation wavelength of 530 nm and an emission wavelength of 590. 219R45-MB-21M18 (-●-); 219R45-MB-21R79 (-▴-); 219R45 (-▪-); Medium with no VEGF (-⋄-).
HUVEC cells were obtained from Lonza (Walkersville, Md.) and cultured in growth media (M199, 10% heat-inactivated FBS (HI-FBS), 50 μg/ml EGS, 1X heparin, 1 mM L-glutamine). For the HUVEC proliferation assay, a 96-well plate was pre-coated with 50 μl of 10 μg/ml rat tail collagen type I solution (collagen I in 0.02N acetic acid) and incubated at 4° C. overnight. After incubation, the plate was thoroughly aspirated to remove unbound collagen I solution and washed once with 200 μl DPBS. The HUVEC cells were removed from the surface of the growth flasks using an endothelial cell subclone reagent and centrifuged at 1200 rpm for 5 minutes at 4° C. The cells were resuspended in starvation/assay medium (M199 and 2% HI-FBS, 1× heparin, 5 U/ml heparin-glutamine) at a density of 10^5 cells/ml. The cells were seeded into the collagen-coated assay plate at 5000 cells/well, 50 ul/well. The cells were incubated for 3 hours at 37° C., washed one time, refed with 100 ul assay media, and incubated overnight at 37° C. The next day, bispecific antibodies 219R45-MB-21M18, 219R45-MB-21R79, parental antibody 219R45, or control antibody LZ1 were prepared in a mixture with human VEGF (R&D Biosystems, Minneapolis, Minn.). The antibodies were serially diluted 5-fold from […] to 0.25 nM in assay buffer in combination with hVEGF (final concentration 5 ng/ml). The mixture was pre-incubated at 37° C. for 2 hours. The medium was removed from the assay plate, and 100 μl of the antibody/hVEGF mixture was added to each well. […] The plate was read with a SpectraMax M5e Microplate reader (Molecular Devices, Sunnyvale CA) using a excitation wavelength of […] and an emission wavelength of 590 nm.

human DLL4-Fc = human DLL4-Fc (Homo sapiens, UniProt Q9NR61); assay: Biacore binding affinity (KD) to human DLL4; conditions: Biacore 2000, human DLL4-Fc on CM5 chip; read-out: KD hDLL4
Procedure: as §1
Several additional anti-DLL4 antibodies were identified that had binding affinities intermediate to the KDs of 21M18 and 21R79. Two of these anti-DLL4 antibodies were used to produce anti-VEGF/anti-DLL4 bispecific antibodies 219R45-MB-21R75 and 219R45-MB-21R83. Using the Biacore 2000 system as described above, the KDs of the bispecific antibodies 219R45-MB-21R75 and 219R45-MB-21R83 to human DLL4 were determined.

mouse VEGF165 = molecular target: T1, mouse VEGF165 (Mus musculus, UniProt Q00731); assay: Biacore binding affinity (KD) to mouse VEGF; conditions: Biacore 2000, biotinylated mouse VEGF165 on streptavidin chip; read-out: KD mVEGF
T1 sequence (Q00731 27-190 isoform Q00731-2): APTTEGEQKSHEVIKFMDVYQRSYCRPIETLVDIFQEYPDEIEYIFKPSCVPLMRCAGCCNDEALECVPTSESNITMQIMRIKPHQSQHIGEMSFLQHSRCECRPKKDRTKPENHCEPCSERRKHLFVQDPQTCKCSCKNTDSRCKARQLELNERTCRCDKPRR
Procedure: as §1

[2] = tested on: DLL4-induced Notch signaling; assay: DLL4-induced Notch signaling luciferase reporter assay in Notch2-expressing PC3 cells; type: cell-based; conditions: coated human DLL4 100 ng/well, antibody 20 to 0.064 ug/ml
Procedure: FIG. 4. Inhibition of DLL4-induced Notch signaling by anti-VEGF/anti-DLL4 bispecific antibodies. Luciferase activity was measured using a dual luciferase assay kit with firefly luciferase activity normalized to Renilla luciferase activity. 219R45-MB-21M18 (-●-); 219R45-MB-21R79 (-▪-); 21M18 (-∘-); 21R79 (-□-).
Human PC3 cells were transfected with an expression vector encoding a full-length human Notch2 receptor and a firefly luciferase reporter vector (8× CBF-luciferase reporter) that is responsive to Notch signaling. The cells were also transfected with a Renilla luciferase reporter (Promega, Madison, Wis.) as an internal control for transfection efficiency. Purified human DLL4 protein was coated onto 96-well plates at 100 ng/well and Notch2-expressing PC3-luc cells were added to the wells. Anti-VEGF/anti-DLL4 bispecific antibodies 219R45-MB-21M18, 219R45-MB-21R79, parental anti-DLL4 antibodies 21M18, 21R79 or a control antibody LZ1 were serially diluted 5-fold from 20 ug/ml to 0.064 ug/ml, added to the appropriate wells, and incubated overnight. Luciferase activity was determined using a dual luciferase assay kit (Promega, Madison, Wis.) with firefly luciferase activity normalized to Renilla luciferase activity.

human VEGF165 = molecular target: T2, human VEGF165 (Homo sapiens, UniProt P15692); assay: Biacore binding affinity (KD) to human VEGF; conditions: Biacore 2000, biotinylated human VEGF165 on streptavidin chip; read-out: KD hVEGF
T2 sequence (P15692 27-191 isoform P15692-4): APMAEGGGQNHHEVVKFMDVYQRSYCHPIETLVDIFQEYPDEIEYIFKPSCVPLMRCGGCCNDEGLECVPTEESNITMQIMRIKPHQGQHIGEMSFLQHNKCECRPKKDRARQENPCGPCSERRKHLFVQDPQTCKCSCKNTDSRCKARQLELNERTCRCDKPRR
Procedure: as §1

Chain of mouse DLL4-Fc (Q9JI71 27-519 limits assumed): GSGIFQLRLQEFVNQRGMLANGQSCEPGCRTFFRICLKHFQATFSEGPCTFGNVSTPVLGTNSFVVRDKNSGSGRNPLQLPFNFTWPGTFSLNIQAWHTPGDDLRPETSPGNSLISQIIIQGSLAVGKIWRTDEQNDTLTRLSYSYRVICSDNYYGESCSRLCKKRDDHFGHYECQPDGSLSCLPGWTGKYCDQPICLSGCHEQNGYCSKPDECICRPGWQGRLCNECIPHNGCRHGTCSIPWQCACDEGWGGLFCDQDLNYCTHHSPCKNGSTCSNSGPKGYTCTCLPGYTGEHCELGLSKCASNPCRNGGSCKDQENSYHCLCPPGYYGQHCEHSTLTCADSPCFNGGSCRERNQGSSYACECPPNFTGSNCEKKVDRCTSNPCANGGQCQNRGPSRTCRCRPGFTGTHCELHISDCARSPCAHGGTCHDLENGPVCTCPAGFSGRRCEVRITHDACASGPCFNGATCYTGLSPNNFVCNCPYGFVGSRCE
Chain of human DLL4-Fc (Q9NR61 27-522 limits assumed): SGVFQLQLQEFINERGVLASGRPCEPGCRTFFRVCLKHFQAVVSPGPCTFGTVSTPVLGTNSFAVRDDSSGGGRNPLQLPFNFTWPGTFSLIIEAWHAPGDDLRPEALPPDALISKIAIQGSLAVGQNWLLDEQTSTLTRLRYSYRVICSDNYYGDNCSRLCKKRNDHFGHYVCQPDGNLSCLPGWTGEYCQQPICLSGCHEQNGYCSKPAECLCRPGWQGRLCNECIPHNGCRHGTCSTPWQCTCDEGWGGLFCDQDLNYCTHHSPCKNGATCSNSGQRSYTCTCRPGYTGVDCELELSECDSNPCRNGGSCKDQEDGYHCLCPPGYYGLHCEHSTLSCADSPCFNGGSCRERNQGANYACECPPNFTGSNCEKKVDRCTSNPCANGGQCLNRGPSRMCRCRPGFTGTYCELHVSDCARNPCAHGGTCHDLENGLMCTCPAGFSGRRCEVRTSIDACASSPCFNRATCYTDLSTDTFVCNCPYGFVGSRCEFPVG

Kd (mouse DLL4-Fc): > 100 nM | Kd (human DLL4-Fc): > 100 nM | Kd (mouse VEGF165): ~23 nM
B1: 219R45: monoclonal antibody that specifically binds human VEGF; parental anti-VEGF antibody (antibody)
heavy: QVQLVQSGAEVKKPGASVKVSCKASGYTFTNYWMHWVRQAPGQGLEWMGDINPSNGRTSYKEKFKRRVTLSVDKSSSTAYMELSSLRSEDTAVYFCTIHYDDKYYPLMDYWGQGTLVTVSSASTKGPSVFPLAPCSRSTSESTAALGCLVKDYFPEPVTVSWNSGALTSGVHTFPAVLQSSGLYSLSSVVTVPSSNFGTQTYTCNVDHKPSNTKVDKTVERKCCVECPPCPAPPVAGPSVFLFPPKPKDTLMISRTPEVTCVVVDVSHEDPEVQFNWYVDGVEVHNAKTKPREEQFNSTFRVVSVLTVVHQDWLNGKEYKCKVSNKGLPAPIEKTISKTKGQPREPQVYTLPPSREEMTKNQVSLTCLVKGFYPSDIAVEWESNGQPENNYKTTPPMLDSDGSFFLYSKLTVDKSRWQQGNVFSCSVMHEALHNHYTQKSLSLSPGK
light: DIVMTQSPDSLAVSLGERATISCRASESVDNYGISFMKWFQQKPGQPPKLLIYAASNQGSGVPDRFSGSGSGTDFTLTISSLQAEDVAVYYCQQSKEVPWTFGGGTKVEIKRTVAAPSVIFPPSDEQLKSGTASVVCLLNNFYPREAKVQWKVDNALQSGNSQESVTEQDSKDSTYSLSSTLTLSKADYEKHKVYACEVTHQGLSSPVTKSFNRGEC
inhibition of VEGF-induced HUVEC proliferation [1]: inhibited HUVEC proliferation

Kd (mouse DLL4-Fc): > 100 nM | Kd (human VEGF165): > 100 nM | Kd (mouse VEGF165): > 100 nM
B2: 21R79: monoclonal antibody that specifically binds human DLL4; parental anti-DLL4 antibody (antibody)
heavy: QVQLVQSGAEVKKPGASVKISCKASGYSFTAYYIHWVKQAPGQGLEWIGYIANYNRATNYNQKFKGRVTFTTDTSTSTAYMELRSLRSDDTAVYYCARDYDYDVGMDYWGQGTLVTVSSASTKGPSVFPLAPCSRSTSESTAALGCLVKDYFPEPVTVSWNSGALTSGVHTFPAVLQSSGLYSLSSVVTVPSSNFGTQTYTCNVDHKPSNTKVDKTVERKCCVECPPCPAPPVAGPSVFLFPPKPKDTLMISRTPEVTCVVVDVSHEDPEVQFNWYVDGVEVHNAKTKPREEQFNSTFRVVSVLTVVHQDWLNGKEYKCKVSNKGLPAPIEKTISKTKGQPREPQVYTLPPSREEMTKNQVSLTCLVKGFYPSDIAVEWESNGQPENNYKTTPPMLDSDGSFFLYSKLTVDKSRWQQGNVFSCSVMHEALHNHYTQKSLSLSPGK
light: B1 light
inhibition of DLL4-induced Notch signaling [2]: inhibited DLL4-induced Notch signaling
